Test results from the supplement of paper PMC9170038.

Tested on: MS2 coat protein
Assay: apparent KD of MS2 coat protein; designed switch direction (-1 OFF switch, 1 ON switch): 1; higher = weaker reporter binding
In short: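 The reported apparent KD is a per-design median over clusters, from curve fits of normalised cluster fluorescence. Protein titrations used SNAP-549-labelled MS2 coat protein, doubled from 0.7 or 1.5 nM to 3 µM, in Tris-HCl pH 7.5 buffer with KCl, MgCl2, BSA, DTT, tRNA and Tween-20, with no input, 200 uM small-molecule ligand, or an oligonucleotide input. The RNA switches were transcribed on Illumina chips by stalled E. coli RNA polymerase.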

[1] = Eterna round: R95, input ligand: microRNA oligo, concentration not stated
[2] = input ligand: microRNA oligo, concentration not stated
[3] = Eterna round: R95, input ligand: FMN 200 uM
[4] = Eterna round: R95, input ligand: none

## UCUAGACAUGAGGAUCACCCAUGUCGAUAUGGCGCAGGAUAUCGGUACUCAUAGAGUACGCGAGAAGGGUGACUUC [Same State 1 - Mod of Vinnie Gere v.2] (puzzle: Same State 1)
[1]
  apparent KD of MS2 coat protein: 173 nM

## UGUUGUAUUACAGGAUAUCUAUGAUUUUUAUUUAGAGAAGGGUAUUCACAUGAGGAUCACCCAUGUAUAUACGAGGAAGUUGUG [JMF's solution 11] (Eterna round: R96, puzzle: Same State NG 1)
[2]
  apparent KD of MS2 coat protein: 36.8 nM

## UAAGAACAUGAGGAUCACCCAUGUGGAAAGAACACAGGAUAUCAUAGAAGGACGCGACUAUGAGAAGGGUGACACG [Lequat] (puzzle: Same State 1)
[3]
  apparent KD of MS2 coat protein: 390 nM
[1]
  apparent KD of MS2 coat protein: 104 nM
[4]
  apparent KD of MS2 coat protein: 218 nM

## UCUUGGUUUUUGCUCGUUUUUUGUGUUGAACAUGAGGAUCACCCAUGUAUUGUACGGUCCGAUUUAAUAGUGGUCCG [JMF 19] (puzzle: Sensor for hsa-mir-208a)
[3]
  apparent KD of MS2 coat protein: 24.4 nM
[1]
  apparent KD of MS2 coat protein: 14.8 nM
[4]
  apparent KD of MS2 coat protein: 27 nM

## ACAUGAGGAUCACCCAUGUAUGCUCAGGAAACUGUGCAACGUGAGGAUAUGGAUCCUAAUUGGAUCCAGAAGGCAUGAAUUAUU [Fiskers NG3ss - 23] (Eterna round: R96, puzzle: Same State NG 3)
Input ligand: FMN 200 uM
  apparent KD of MS2 coat protein: 41.5 nM
[2]
  apparent KD of MS2 coat protein: 170 nM
Input ligand: none
  apparent KD of MS2 coat protein: 418 nM

## UGAAUAGUCACAGGAUAUCAUGCGAAAAUUGCGUGAGAAGGGUGGAUGUUGUGCUCAAAGUGCUACAUGAGGAUCACCCAUGUU [SameState NG1 #42] (Eterna round: R96, puzzle: Same State NG 1)
Input ligand: FMN 200 uM
  apparent KD of MS2 coat protein: 337 nM
[2]
  apparent KD of MS2 coat protein: 234 nM
Input ligand: none
  apparent KD of MS2 coat protein: 187 nM

## AGCUAUUACGAAGGAUAUUCUGACAUGAGGAUCACCCAUGUCUUCAUGAUUUAUUGUGAUCACGUGAAGAAGGUUGUACUAACA [SameState NG2 #26] (Eterna round: R96, puzzle: Same State NG 2)
Input ligand: FMN 200 uM
  apparent KD of MS2 coat protein: 66.4 nM
[2]
  apparent KD of MS2 coat protein: 72.2 nM
Input ligand: none
  apparent KD of MS2 coat protein: 72.2 nM

## AGUUGAAAUACAGGAUAUAUAUUAUUUUUAUUUAUAGAAGGGUAAUCACAUGAGGAUCACCCAUGUAUAUACGAGGAAGAAGAG [JMF's solution 1] (Eterna round: R96, puzzle: Same State NG 1)
[2]
  apparent KD of MS2 coat protein: 182 nM

## AGAUCAUGACGAGGAUAUGGUACAUGAGGAUCACCCAUGUAUGUACCACGACGCGUACGUCGAAUCCAGAAGGCGUCAUGGUCA [Mat - Same State NG 2 - JL mod - D17] (Eterna round: R96, puzzle: Same State NG 2)
Input ligand: FMN 200 uM
  apparent KD of MS2 coat protein: 17.8 nM
[2]
  apparent KD of MS2 coat protein: 51.3 nM
Input ligand: none
  apparent KD of MS2 coat protein: 119 nM

## CUCCAUUGGGUAGGAUAUCUAGGAUAUGGGAAAGACUAAGUCUGUAGGUCACCUAACCCAGAUGGAGAGAAGGACCCAACUCUC [pwkr ssNG2 2FMN + F9.41] (Eterna round: R96, puzzle: Same State NG 2)
Input ligand: FMN 200 uM
  apparent KD of MS2 coat protein: 8.17 nM
[2]
  apparent KD of MS2 coat protein: 2.07 nM
Input ligand: none
  apparent KD of MS2 coat protein: 12.3 nM

## GGAAUAUUUACAGGAUAUGAGUUGUAAAGUCGAUCAGAAGGGUAGGUGUCUUGCACGGUGUGUUACAUGAGGAUCACCCAUGUU [SameState NG1 #21] (Eterna round: R96, puzzle: Same State NG 1)
Input ligand: FMN 200 uM
  apparent KD of MS2 coat protein: 156 nM
[2]
  apparent KD of MS2 coat protein: 116 nM
Input ligand: none
  apparent KD of MS2 coat protein: 128 nM

## UGACACACGGCAGGAUAUCGAUAGCAAAGCUAUCGAGAAGGGCCUCAUGUCGUGGAAACGUGACAUGAGGAUCACCCAUGUCGC [Omei SS(NG)1 Cv12] (Eterna round: R96, puzzle: Same State NG 1)
Input ligand: FMN 200 uM
  apparent KD of MS2 coat protein: 72 nM
[2]
  apparent KD of MS2 coat protein: 12.6 nM
Input ligand: none
  apparent KD of MS2 coat protein: 26.6 nM

## GGUGCCAAUAAAGCCUACAUGAGGAUCACCCAUGUAUGUAGGCAGGAUAUCGUUUGCUUUGCAAACGAGAAGGGCCUAGGCACC [JL SSNG3 1.21] (Eterna round: R96, puzzle: Same State NG 3)
Input ligand: FMN 200 uM
  apparent KD of MS2 coat protein: 16.3 nM
[2]
  apparent KD of MS2 coat protein: 24.3 nM
Input ligand: none
  apparent KD of MS2 coat protein: 29.8 nM

## GCCGCGUUUCGCGCCUACAUGAGGAUCACCCAUGUUUGUAGGCAGGAUAUCGUUUGCUUUGCAAACGAGAAGGGCUGUUGUGGC [salish99_SSNG3_R04_012] (Eterna round: R96, puzzle: Same State NG 3)
Input ligand: FMN 200 uM
  apparent KD of MS2 coat protein: 29.9 nM
[2]
  apparent KD of MS2 coat protein: 47.2 nM
Input ligand: none
  apparent KD of MS2 coat protein: 50.2 nM

## ACAUGAAAUUGAGGAUAUUUUGUACCUACAUGUGACAUGAGGAUCACCCAUGUGGUAAGUAUAAGAAAGAAGGCAAAGAUAUGU [Equivalence 7 - Jieux - Same State NG 2] (Eterna round: R96, puzzle: Same State NG 2)
Input ligand: FMN 200 uM
  apparent KD of MS2 coat protein: 25.6 nM
[2]
  apparent KD of MS2 coat protein: 30.8 nM
Input ligand: none
  apparent KD of MS2 coat protein: 64.9 nM

## AUUGCUUACGCAGGAUAUGAUGUGGAAACUGCGUCAGAAGGGUGAACAGUAUCGUUGCAAGAGGACAUGAGGAUCACCCAUGUC [SameState NG1 #98] (Eterna round: R96, puzzle: Same State NG 1)
Input ligand: FMN 200 uM
  apparent KD of MS2 coat protein: 27.9 nM
[2]
  apparent KD of MS2 coat protein: 20.6 nM
Input ligand: none
  apparent KD of MS2 coat protein: 31.4 nM

## AAGCUCGUGUGAGGAUAUGCCGCCGUUUCGGCUGCAGAAGGUGCUACGUUACAUGAGGAUCACCCAUGUCUCUGUUGUUUCGUG [salish99_SSNG1_r04_953] (Eterna round: R96, puzzle: Same State NG 1)
[2]
  apparent KD of MS2 coat protein: 18.5 nM

## GAGUUACAUGAGGAUCACCCAUGUGGUUGUGGAUAAGGAUAUAUGGUAGGAGGAGGAAUGAUAGAAGGUAUUAGGG [JR_SS1_Sub065] (puzzle: Same State 1)
[1]
  apparent KD of MS2 coat protein: 52.9 nM

## AACAAUCUAUCUGAGGAUAUCAUUAAAUAAACAUGAGGAUCACCCAUGUGCAGGAAAACUGCAUAUGAGAAGGCAGAUAGAUUGA [salish99_ss2_r3_029] (puzzle: Same State 2)
[3]
  apparent KD of MS2 coat protein: 12.3 nM
[1]
  apparent KD of MS2 coat protein: 46.2 nM
[4]
  apparent KD of MS2 coat protein: 55.2 nM

## AAACGGCCGAACGGAGGACCACAUGAGGAUCACCCAUGUACAUAGGAUAUCAUGCCAACGAGGCAUGAGAAGGGUGAUUAAAAC [Ribigeso] (Eterna round: R96, puzzle: Same State NG 3)
Input ligand: FMN 200 uM
  apparent KD of MS2 coat protein: 126 nM
[2]
  apparent KD of MS2 coat protein: 27.6 nM
Input ligand: none
  apparent KD of MS2 coat protein: 32 nM

## UCUUGGUUUUUGCUCGUUUUUUGUGUUGAACAUGAGGAUCACCCAUGUAUUGUACAGUCCAAUUUAAUAAUGGUCCA [JMF 4] (puzzle: Sensor for hsa-mir-208a)
[3]
  apparent KD of MS2 coat protein: 34.2 nM
[1]
  apparent KD of MS2 coat protein: 27.9 nM
[4]
  apparent KD of MS2 coat protein: 41.6 nM

## ACCCGCGACGGAGGAUAUGGGCACUCGGCGAAAUAAACCGCCAUAACAUGAGGAUCACCCAUGUCCCAGAAGGCCGCCGCAAAC [Leatve] (Eterna round: R96, puzzle: Same State NG 2)
Input ligand: FMN 200 uM
  apparent KD of MS2 coat protein: 92.3 nM
[2]
  apparent KD of MS2 coat protein: 255 nM
Input ligand: none
  apparent KD of MS2 coat protein: 505 nM

## UAUUAGAUCCGAGGAUAUCCUUAUUAGAAACAUGAGGAUCACCCAUGUAAAGGGAAUUAUUUGUAGGAGAAGGCGGAUUUAGUU [JR_SSNG2_Sub056] (Eterna round: R96, puzzle: Same State NG 2)
[2]
  apparent KD of MS2 coat protein: 41.7 nM

## AGAUCAUGACGAGGAUAUGGUACAUGAGGAUCACCCAUGUAUGUACCACGACGCGUACGUCGAAUCCAGAAGGCGUCGUGGUCA [JL SSNG2 1.07] (Eterna round: R96, puzzle: Same State NG 2)
Input ligand: FMN 200 uM
  apparent KD of MS2 coat protein: 23.3 nM
[2]
  apparent KD of MS2 coat protein: 27.7 nM
Input ligand: none
  apparent KD of MS2 coat protein: 41.6 nM

## AGUCCAGCCUGAGCUGGACAAAAGCAUGUACAUGAGGAUCACCCAUGUUAUGUACAAGCUUUUUGCUCGUUUUAAUA [Zipper 49 - 15] (puzzle: Sensor for hsa-mir-208a)
[3]
  apparent KD of MS2 coat protein: 191 nM
[1]
  apparent KD of MS2 coat protein: 13.1 nM
[4]
  apparent KD of MS2 coat protein: 199 nM

## GGUAUCGACACAGGAUAUGCUAUCCUUUGGGUAGCAGAAGGGUGAACAUGAGGAUCACCCAUGUAGGUGCCAGGGCGUGAGCCC [JL SSNG1 1.79] (Eterna round: R96, puzzle: Same State NG 1)
Input ligand: FMN 200 uM
  apparent KD of MS2 coat protein: 368 nM
[2]
  apparent KD of MS2 coat protein: 94.1 nM
Input ligand: none
  apparent KD of MS2 coat protein: 787 nM

## GUGGUCAGACAUGAGGAUCACCCAUGUGGAAUAAAUAAGGAGAAGGAUAUUGAAUAUAGGAUAUACAAGAAGGUCUGGUUGGUG (Eterna round: R96, puzzle: Same State NG 3)
[2]
  apparent KD of MS2 coat protein: 71.3 nM

## ACAAGCUUUUUUGUAGUGAAAGGUGGGAUACAUGAGGAUCACCCAUGUAUUGUUGUUAAUAUUGGACCUCGUCUUAU [JR_SHM208A_Sub084] (puzzle: Sensor for hsa-mir-208a)
[3]
  apparent KD of MS2 coat protein: 22.1 nM
[1]
  apparent KD of MS2 coat protein: 14.2 nM
[4]
  apparent KD of MS2 coat protein: 22.5 nM

## GUUGAGAAAUGAGGAUAUGCAUGGAAGACACAUGAGGAUCACCCAUGUGGGAGGGAAACCAGGAGGUAGAAGGCAUUGGGAAAC [AK SSNG2-V2-24] (Eterna round: R96, puzzle: Same State NG 2)
Input ligand: FMN 200 uM
  apparent KD of MS2 coat protein: 35.7 nM
[2]
  apparent KD of MS2 coat protein: 35.5 nM
Input ligand: none
  apparent KD of MS2 coat protein: 55.1 nM

## UGGCUCAGAGCAGGAUAUAUGUGAUCACAUGAGGAUCACCCAUGUCUCGAGCUUCGGCUCGAGACAUAGAAGGGCUCUGAGCCA [SSNG2/3-B2] (Eterna round: R96, puzzle: Same State NG 2)
Input ligand: FMN 200 uM
  apparent KD of MS2 coat protein: 23.3 nM
[2]
  apparent KD of MS2 coat protein: 21.8 nM
Input ligand: none
  apparent KD of MS2 coat protein: 22.5 nM

## UUAUCACAUGAGGAUCACCCAUGUUAUACUUUUUUAGGAUAUUUUAUGUAUGACCAAAUAAAAGAAGGAGGAAUAA [flagellum_key_01] (puzzle: Same State 1)
[3]
  apparent KD of MS2 coat protein: 31.2 nM
[1]
  apparent KD of MS2 coat protein: 44.4 nM
[4]
  apparent KD of MS2 coat protein: 47 nM

## UGUUGUAUUACAGGAUAUCUAUUAGUUUUAAUUAGAGAAGGGUAUUCACAUGAGGAUCACCCAUGUAUAUACGAGGAAGUUGUG [JMF's solution 98] (Eterna round: R96, puzzle: Same State NG 1)
[2]
  apparent KD of MS2 coat protein: 33.8 nM
